The text below walks through data of patent US20150056222A1 (Regeneron, published 2015).

The target of assay [1] is T1, hPRLR.mmh (soluble monomeric human PRLR) (human).
T1 construct: soluble monomeric construct
T1 chain: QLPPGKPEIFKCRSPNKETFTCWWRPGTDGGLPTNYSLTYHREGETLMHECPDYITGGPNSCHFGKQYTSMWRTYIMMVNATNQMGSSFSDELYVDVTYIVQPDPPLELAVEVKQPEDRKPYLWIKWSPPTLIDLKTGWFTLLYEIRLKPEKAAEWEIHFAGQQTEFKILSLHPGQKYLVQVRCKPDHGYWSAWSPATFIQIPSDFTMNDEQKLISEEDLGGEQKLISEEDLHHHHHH
Kind of assay: SPR, 37C, mAb capture. Here is the method:
(§1) Measurements were conducted on a T200 Biacore instrument. Kinetic association (kₐ) and dissociation (kd) rate constants were determined by processing and fitting the data to a 1:1 binding model using Scrubber 2.0 curve fitting software. Binding dissociation equilibrium constants (KD) and dissociative half-lives (t_{1/2}) were calculated from the kinetic rate constants as: KD (M)=kd/kₐ; and […].

For assay [2], the target named is T2, hPRLR.mFc (soluble dimeric human PRLR) (human).
T2 construct: dimeric construct
T2 chain: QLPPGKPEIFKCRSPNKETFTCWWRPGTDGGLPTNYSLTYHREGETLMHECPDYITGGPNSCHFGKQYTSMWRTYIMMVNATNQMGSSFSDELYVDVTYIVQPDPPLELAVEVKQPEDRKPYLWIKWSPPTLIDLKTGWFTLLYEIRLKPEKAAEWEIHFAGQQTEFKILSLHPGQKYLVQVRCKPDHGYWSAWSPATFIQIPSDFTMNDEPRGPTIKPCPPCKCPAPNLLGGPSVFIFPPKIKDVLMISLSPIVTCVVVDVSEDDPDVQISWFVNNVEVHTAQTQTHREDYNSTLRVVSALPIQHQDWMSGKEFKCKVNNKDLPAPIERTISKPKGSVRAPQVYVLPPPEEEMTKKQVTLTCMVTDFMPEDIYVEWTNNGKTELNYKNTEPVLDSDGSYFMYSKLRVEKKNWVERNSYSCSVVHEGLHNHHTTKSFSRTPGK
In words: SPR, 37C, mAb capture. As to the method: as §1

Assay [3] concerns the target T3, mfPRLR.mmh (soluble monomeric macaca fascicularis PRLR) (macaca fascicularis).
T3 construct: soluble monomeric construct; also called macaca fascicularis (mf) PRLR.mmh
T3 chain: T1 chain with I76V, A110T, I125M, I158T, T207I
In words: SPR, 37C, mAb capture. Here is the method:
as §1
For orientation: SPR reads the build-up and loss of mass on a sensor chip optically.

The target of assay [4] is T4, human prolactin receptor (PRLR) on cells (human, UniProt P16471 25-622).
T4 sequence: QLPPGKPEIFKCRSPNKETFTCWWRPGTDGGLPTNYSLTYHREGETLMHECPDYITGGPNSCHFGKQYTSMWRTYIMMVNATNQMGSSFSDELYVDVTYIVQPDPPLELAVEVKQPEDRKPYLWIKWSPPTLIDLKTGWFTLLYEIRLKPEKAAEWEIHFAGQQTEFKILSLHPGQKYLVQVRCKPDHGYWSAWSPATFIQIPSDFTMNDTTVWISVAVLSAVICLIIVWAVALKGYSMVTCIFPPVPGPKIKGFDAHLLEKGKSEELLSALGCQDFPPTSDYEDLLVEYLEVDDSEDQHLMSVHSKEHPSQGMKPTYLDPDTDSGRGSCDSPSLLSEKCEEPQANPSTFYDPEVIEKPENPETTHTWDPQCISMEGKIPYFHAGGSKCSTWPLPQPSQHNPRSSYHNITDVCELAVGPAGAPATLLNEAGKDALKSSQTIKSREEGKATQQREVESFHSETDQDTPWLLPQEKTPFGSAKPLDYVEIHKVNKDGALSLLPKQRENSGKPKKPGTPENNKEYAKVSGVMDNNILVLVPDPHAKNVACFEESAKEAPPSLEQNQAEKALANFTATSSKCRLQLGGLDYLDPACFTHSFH
Kind of assay: cell-based or functional assay.

The target of assay [5] is T4, human prolactin receptor (PRLR) on cells. Kind of assay: FACS, HEK293/hPRLR cells. Further: test concentration or dose not given here. For orientation: In flow cytometry, cells or beads pass a laser one at a time.
The target of assay [6] is T5, mouse PRLR on HEK293 cells (mouse, UniProt Q08501 20-608).
T5 construct: whole, on cells; also called mPRLR; HEK293/mPRLR
T5 sequence (looked up): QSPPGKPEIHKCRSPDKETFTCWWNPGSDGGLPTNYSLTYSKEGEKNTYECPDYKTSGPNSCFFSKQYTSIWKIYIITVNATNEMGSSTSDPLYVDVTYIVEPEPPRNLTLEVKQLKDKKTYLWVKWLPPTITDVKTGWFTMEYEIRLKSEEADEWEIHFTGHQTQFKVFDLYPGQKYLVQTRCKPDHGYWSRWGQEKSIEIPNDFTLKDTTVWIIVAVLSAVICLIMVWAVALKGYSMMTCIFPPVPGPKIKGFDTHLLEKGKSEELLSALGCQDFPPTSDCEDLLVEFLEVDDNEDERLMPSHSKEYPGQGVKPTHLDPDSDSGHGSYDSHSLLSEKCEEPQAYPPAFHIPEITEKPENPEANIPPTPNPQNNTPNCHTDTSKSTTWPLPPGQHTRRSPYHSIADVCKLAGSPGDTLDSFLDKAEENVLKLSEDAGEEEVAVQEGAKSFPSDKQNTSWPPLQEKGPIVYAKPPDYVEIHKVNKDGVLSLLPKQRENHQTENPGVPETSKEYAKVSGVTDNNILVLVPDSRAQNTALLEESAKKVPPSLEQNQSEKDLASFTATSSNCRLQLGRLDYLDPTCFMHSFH
Kind of assay: FACS, HEK293/mPRLR cells. Further: test concentration or dose not given here.

In assay [7] the target is T6, monkey (macaca fascicularis) PRLR on HEK293 cells (macaca fascicularis, UniProt A0A2K5WXK1 25-619).
T6 construct: also called mfPRLR; HEK293/mfPRLR
T6 sequence: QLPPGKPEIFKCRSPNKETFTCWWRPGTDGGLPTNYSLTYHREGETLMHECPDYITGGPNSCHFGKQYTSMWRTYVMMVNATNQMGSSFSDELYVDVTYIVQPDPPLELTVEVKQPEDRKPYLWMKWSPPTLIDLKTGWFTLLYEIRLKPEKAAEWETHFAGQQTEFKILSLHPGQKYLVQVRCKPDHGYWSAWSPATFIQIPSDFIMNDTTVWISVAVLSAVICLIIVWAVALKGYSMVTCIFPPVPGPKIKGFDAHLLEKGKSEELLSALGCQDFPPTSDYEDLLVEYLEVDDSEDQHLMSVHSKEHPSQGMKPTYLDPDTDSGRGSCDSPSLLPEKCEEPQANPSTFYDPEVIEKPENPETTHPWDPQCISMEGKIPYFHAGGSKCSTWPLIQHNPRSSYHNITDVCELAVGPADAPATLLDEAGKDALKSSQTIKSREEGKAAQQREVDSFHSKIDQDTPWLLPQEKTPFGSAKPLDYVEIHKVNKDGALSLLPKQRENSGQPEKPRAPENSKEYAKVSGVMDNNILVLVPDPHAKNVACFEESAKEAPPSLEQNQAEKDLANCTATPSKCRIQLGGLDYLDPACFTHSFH
Kind of assay: FACS, HEK293/mfPRLR cells. Further: test concentration or dose not given here.

The target of assay [8] is T4, human prolactin receptor (PRLR) on cells. In words: FACS, T47D cells (native PRLR). Further: test concentration or dose not given here.

Residue numbers refer to the chain shown, from its start. In names and notes the source's numbering stands.

B1: H1H6800P (antibody, human IgG1, V domains shown)
VH: EVQLVESGGGLVQPGRSLRLSCAASGFTFDGYAMHWVRQGPGKGLEWVSGISWYSDTLGYADSVKGRFTISRDNAKNSLYLQMNSLRTEDTAFYYCAKISSSGWAFDYWGQGTLVTVSS
VL: EIVLTQSPGTLSLSPGERATLSCRASHSVSSAYLAWYQQKPGQTPRLLIYGTSSRATGIPDRFSGSGSGTDFTLTISRLEPEDFAVYYCQQYGSSPLFTFGPGTKVDIK
notes: human IgG1 Fc (H1H)
B1: the T½ in assay [1] is 10 min; in assay [2] it was 79 min; in assay [3], 11 min. Besides, the “% Internalization relative to Control I (alexa488 intensity in intracellular vesicles at 37 C, T47D cells)” value (“% Internalization relative to Control I” below) in assay [4] turned out to be 198%. For the same molecule, the “FACS Cell Binding (Fold Above Background)” value in assay [5] was found to be 35 fold above background; in assay [6] it was 1 fold above background; in assay [7] it was 29 fold above background; in assay [8] it was 41 fold above background.

B2: H1H6762P (antibody, human IgG1, V domains shown)
VH: QVQLVESGGGVVQPGRSLRLSCAASGFTFSHYGMVWVRQPPGKGLEWVALISFDGTTKYYADSVKGRFTISRDNSKNTLYLQMNSLRAEDTAVYFCVGAIAAAAFDLWGRGTLVTVSS
VL: EIVMTQSPATLSVSPGERATLSCRASQSVSSDLAWYQQKPGQAPRLLIYSASARATGIPARFTGSGSGTDFTLTISSLQSEDFAVYYCQQYNNWPMYTFGQGTKLEIK
notes: human IgG1 Fc (H1H)
As to B2, the T½ in assay [1] was determined as 25 min; in assay [2], 112 min; in assay [3], 21 min. Moreover, in assay [4], the “% Internalization relative to Control I” value stood at 186%. Besides, the “FACS Cell Binding (Fold Above Background)” value in assay [5] worked out at 36 fold above background; in assay [6], 2 fold above background; in assay [7] it was 26 fold above background; in assay [8], 38 fold above background.

B3: H1H6959N2 (antibody, human IgG1, V domains shown)
VH: EVQLVESGGGLVQPGRSLRLSCAASGFTFDDYAMHWVRQAPGKGLEWVSGISWHSGIIGYADSVKGRFTISRDNAKNSLYLQMNSLRTEDAALYYCAKIGSYFYFDSWGQGTLVTVSS
VL: EIVLTQSPGTLSLSPGERATLSCRASQSVSSNYLAWYQQKPGQAPRLLIYGASSRATGIPDRFSGSGSGTDFTLTISRLEPEDFAVYYCQQFGSSGYTFGQGTNLEIK
notes: also called H2M6959N2
Take B3: the T½ in assay [1] worked out at 0.4 min; in assay [2], 5 min. Also, in assay [4], the “% Internalization relative to Control I” value was 15.3%. For the same molecule, the “FACS Cell Binding (Fold Above Background)” value in assay [5] was 6 fold above background; in assay [6], 2 fold above background; in assay [7], 11 fold above background; in assay [8] it was 9 fold above background.

B4: H1H6801P (antibody, human IgG1, V domains shown)
VH: QVQLQQSGPGLVKPSQTLSLTCVISGDSVSSNTAWNWVRQSPSRGLEWLGRTYYRSKWYNDYAVSVKSRITINPDTSKNQFSLLMNSVTPEDTAVYYCARVVRGLNYFDYWGQGTLVTVSS
VL: DIVMTQSPDSLAVSLGERATINCKSSQSVLYNSNNKNYLAWYQQKPGQPPKLLIYWSSSRESGVPDRFSGSGSGTDFTLTISGLQAEDVAIYYCQQYSTIPYTFGQGTKLEIK
notes: human IgG1 Fc (H1H)
As to B4, the T½ in assay [1] amounted to 3 min; in assay [2], 52 min; in assay [3] it was 1 min. The “% Internalization relative to Control I” value in assay [4] stood at 149%. In addition, the “FACS Cell Binding (Fold Above Background)” value in assay [5] is 47 fold above background; in assay [7] it was 88 fold above background; in assay [8], 45 fold above background.

B5: H1H6975N (antibody, human IgG1, V domains shown)
VH: EVHLVESGGGLVQPGGSLRLSCAASGFTFSSYEMNWVRQTPGKGLEWISHISSRSVIIYYADSVKGRFTISRDNAKNSLFLQMNSLRAEDTAVYFCAGITIFGIPEYWGQGTLVTVSS
VL: EIVLTQSPATLSLSPGERATLSCRASQSVSSYFAWYQQKPGQAPRLLIYDASSRATGIPTRFSGSGSGTDFTLTISSLEPEDFAVYYCQQRSSWPITFGQGTRLEIK
notes: also called H2M6975N
Turning to B5, the T½ in assay [1] came out at 42.3 min; in assay [2] it was 163 min; in assay [3], 36.4 min. The “% Internalization relative to Control I” value in assay [4] is 214%. Moreover, the “FACS Cell Binding (Fold Above Background)” value was found to be 38 fold above background in assay [5], 1 fold above background in assay [6], 29 fold above background in assay [7] and 46 fold above background in assay [8].

B6: H1H6803P (antibody, human IgG1, V domains shown)
VH: EVQLVESGGGVVRPGGSLRLSCAASGFKFDDYGMTWVRHVPGKGLEWVSGINWNGGRTGYTDSVKGRFTISRDNAKNSLYLQMNSLRAEDTALYHCAGARRDAFDIWGQGTMVTVSS
VL: DIQMTQSPSSLSASIGDRVTITCRASQNIIKYLNWYQQNAGKAPKLLIYTASSLQSGVPSRFSGSGSGTDFTLTISSLQPEDFATYYCQQSSSSPYTFGQGTKLEIK
notes: human IgG1 Fc (H1H)
For the molecule B6, the T½ amounted to 32 min in assay [1], 186 min in assay [2] and 18 min in assay [3]. In addition, the “% Internalization relative to Control I” value in assay [4] was determined as 190%. The “FACS Cell Binding (Fold Above Background)” value in assay [5] is 39 fold above background; in assay [6], 1 fold above background; in assay [7] it was 28 fold above background; in assay [8] it was 39 fold above background.
